Laboratory results taken from patent publication US20120034229A1 (UNIVERSITE CLAUDE BERNARD LYON 1, published 2012).

Legend:
[1] = biological target: T1, mature form of alpha3 lacking the LG4/5 domain (human, UniProt Q16787-1 28-1348, limits assumed); assay: Western blot of purified LN5, reducing SDS-PAGE
T1 construct: domain: mature form of alpha3 lacking the LG4/5 domain; Alpha3 subunit of LN5 purified from keratinocyte culture medium, reducing SDS-PAGE; also called alpha3 chain of mature LN5
T1 sequence (looked up): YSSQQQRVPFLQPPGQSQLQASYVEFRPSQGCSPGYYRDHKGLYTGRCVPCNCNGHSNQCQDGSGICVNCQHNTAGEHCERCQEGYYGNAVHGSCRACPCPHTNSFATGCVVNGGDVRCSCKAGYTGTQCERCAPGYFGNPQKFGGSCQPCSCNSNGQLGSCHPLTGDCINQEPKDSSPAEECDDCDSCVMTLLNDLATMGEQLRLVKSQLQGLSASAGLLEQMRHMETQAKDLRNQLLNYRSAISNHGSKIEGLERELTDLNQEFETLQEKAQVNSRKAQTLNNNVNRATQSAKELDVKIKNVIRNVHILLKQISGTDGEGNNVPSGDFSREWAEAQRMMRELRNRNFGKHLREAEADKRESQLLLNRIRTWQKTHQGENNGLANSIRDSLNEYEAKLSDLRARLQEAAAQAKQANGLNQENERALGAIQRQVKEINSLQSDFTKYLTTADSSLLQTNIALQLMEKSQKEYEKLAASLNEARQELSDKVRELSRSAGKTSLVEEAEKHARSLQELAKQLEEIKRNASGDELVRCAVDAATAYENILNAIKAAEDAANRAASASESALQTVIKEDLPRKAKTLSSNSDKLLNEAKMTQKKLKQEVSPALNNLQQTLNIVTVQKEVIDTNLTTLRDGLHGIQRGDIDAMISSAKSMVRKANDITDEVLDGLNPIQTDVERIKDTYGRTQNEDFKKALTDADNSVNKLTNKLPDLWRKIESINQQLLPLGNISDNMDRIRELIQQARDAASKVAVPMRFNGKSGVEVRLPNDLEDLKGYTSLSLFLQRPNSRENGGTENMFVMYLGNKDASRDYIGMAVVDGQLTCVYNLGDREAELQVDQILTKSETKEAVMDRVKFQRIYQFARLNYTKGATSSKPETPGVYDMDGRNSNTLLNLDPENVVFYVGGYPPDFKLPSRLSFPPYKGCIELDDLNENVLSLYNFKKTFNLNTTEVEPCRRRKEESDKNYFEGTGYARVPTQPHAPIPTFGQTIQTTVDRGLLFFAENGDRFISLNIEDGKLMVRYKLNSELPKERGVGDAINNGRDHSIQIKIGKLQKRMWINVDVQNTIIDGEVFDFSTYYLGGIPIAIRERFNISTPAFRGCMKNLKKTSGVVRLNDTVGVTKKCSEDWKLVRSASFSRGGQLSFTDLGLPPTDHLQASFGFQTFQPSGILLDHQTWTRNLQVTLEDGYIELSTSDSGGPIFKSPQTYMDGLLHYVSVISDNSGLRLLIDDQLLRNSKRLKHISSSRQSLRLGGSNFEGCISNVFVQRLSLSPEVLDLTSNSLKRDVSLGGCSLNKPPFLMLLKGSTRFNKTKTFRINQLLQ

[2] = biological target: T2, recombinant LG4/5 fragment of chain alpha3 of human laminin-5 (human, UniProt Q16787 2981-3333, limits assumed); assay: Western blot of the purified recombinant LG4/5 fragment
T2 construct: Recombinantly expressed and purified on heparin as in Okamoto et al. 2003; also called alpha3LG4/5 fragment; LG4/5 domain
T2 sequence: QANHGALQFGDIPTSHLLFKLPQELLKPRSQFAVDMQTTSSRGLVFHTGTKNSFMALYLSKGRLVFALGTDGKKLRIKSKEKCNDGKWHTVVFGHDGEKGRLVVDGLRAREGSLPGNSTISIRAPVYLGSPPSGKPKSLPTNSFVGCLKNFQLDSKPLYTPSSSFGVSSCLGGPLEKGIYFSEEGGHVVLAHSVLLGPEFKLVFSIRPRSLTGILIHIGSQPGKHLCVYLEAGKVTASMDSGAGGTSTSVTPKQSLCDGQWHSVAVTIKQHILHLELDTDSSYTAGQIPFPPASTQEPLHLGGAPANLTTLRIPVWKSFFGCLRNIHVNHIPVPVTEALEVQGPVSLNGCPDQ

- binding result [1]: no binding
- binding result [2]: binds
B1: 1H12 monoclonal antibody produced by the hybridoma cell line named 1H12 (C.N.C.M. I-3890) (antibody, V domains shown)
VH: VKLQQSGPELVKPGASVKISCKTSGYTFTEYTIHWVKQSHGKTLEWIGGINPKNGDTSYNQKFKGKATLTVDKSSNTAYMEFRSLTSEDSAVYYCASPDLPPMDYWGQGTTVTVSS
VL: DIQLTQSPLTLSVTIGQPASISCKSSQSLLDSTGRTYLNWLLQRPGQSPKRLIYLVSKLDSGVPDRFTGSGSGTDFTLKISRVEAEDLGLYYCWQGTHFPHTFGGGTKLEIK
notes: Mouse IgG1 kappa from hybridoma (supernatant or ascites); Ends of the V domains come from PCR primers; also called 1H12 mAb; mAb 1H12
